Measurements: the DeepSol protein solubility set

Assay: soluble on expression in E. coli; label from the status in PepcDB or PDB records

Row | Sequence | soluble on expression in E. coli
1 | MGSDKIHHHHHHMMNLSELAPDYIRAIQPYQPGKPISELVRDLGLNKDEVVKLASNENPLGTSPLAKEAMIQALNESARYPDGSGFELKAALSERLGMPADQIVLGNGSNDVLELATRIFLHPDSTAIYSQYAFAIYPLLAQAVGARGIAVPARNYGHDLEAMLAAVTPETRIIFIANPNNPTGTLCDARDLLRFMERVPQDVLVILDEAYDEYLPEANKANSIAWLKNFQNLVITRTFSKAYGLASVRVGFALAHADIANLMNRIRQPFNVNSIGLAAAQAALKDVEFVKLAYMTNRTGMQQMTHGLDQLGIEYIPSFGNFVCCHIDGHPANTLKIYRNLLQQGVIVRPLGNYDMLNHLRVTIGIEEENKRFLQALEQALKELD | not soluble
2 | MGHHHHHHSHCDSDCLWVGLAGPQILPPCRSIVRTLHQHKLGRASWPSVQQGLQQSFLHTLDSYRILQKAAPFDRRATSLAWHPTHPSTVAVGSKGGDIMLWNFGIKDKPTFIKGIGAGGSITGLKFNPLNTNQFYASSMEGTTRLQDFKGNILRVFASSDTINIWFCSLDVSASSRMVVTGDNVGNVILLNMDGKELWNLRMHKKKVTHVALNPCCDWFLATASVDQTVKIWDLRQVRGKASFLYSLPHRHPVNAACFSPDGARLLTTDQKSEIRVYSASQWDCPLGLIPHPHRHFQHLTPIKAAWHPRYNLIVVGRYPDPNFKSCTPYELRTIDVFDGNSGKMMCQLYDPESSGISSLNEFNPMGDTLASAMGYHILIWSQEEARTRK | not soluble
3 | MSGKTKRLMVMAGGTGGHVFPGLAVAHHLMAQGWQVRWLGTADRMEASLVPQHGIEIDFIKISGLRGKGLMAQLTAPIRIYRAVRQAQKIMRDYQPNVVLGMGGYVSGPGGLAAWLCGVPVVLHEQNGIAGLTNRWLARIAKKVLQAFPGAFPNADVVGNPVRTDVLALPLPAVRLSGREGPIRVLVIGGSQGARILNQTLPLVAASLGEQITLWHQVGKGALPEVSQAYQQAGQAGHLVVEFIDDMAAAYAWADVVVCRSGALTVSEVAAAGLPAIFVPFQHKDRQQYWNALPLEKAGAAKIIEQPQFTATSVSSLLASWDRATLLSMAERARSVAIPDATERVAAEVVAASKSA | not soluble
4 | MKKTLLAIVAVSALSACRQAEEGPPPLPRQISDRSVGHYCSMNLTEHNGPKAQIFLNGKPDQPVWFSTIKQMFGYTKLPEEPKGIRVIYVTDMGNVTDWTNPNADTEWMDAKKAFYVIDSGFIGGMGAEDALPFGNKEQAEKFAKDKGGKVVGFDDMPDTYIFK | not soluble
5 | MGGIARLYGDSALAHFSQAHVCVVGVGGVGSWAVEALARTGIGRLTLIDLDNVAESNVNRQLHALTGDFGKAKVTALRERITQINPQCEVFEIEDFVTEDNLPEYFGKGFDFVIDAIDQVRVKAAMAAYFVERKQPFVLSGGAGGQKNPALIQTADLSRVTHDPLLANLRYTLRKRYGFSRDTKANMRVPCVYSTENIVPPQSREACSADAAPQGLSCAGYGASMLVTASFGLYCAQAAVEHIADKKLEHHHHHH | not soluble
6 | MIPKIIHYVWVGHNPKSKLIQECIATWKEKLPDYQFIEWNEDNFDMHENKYIEQAYKAKKWAFVSDYIRAKAIYEQGGIYLDTDVRVIASLTPLLDNKAFIGFENNNYLSAAIFGAEKGHPFMQDILDYYKDRNFEYDVNNQMAGVNSVSVTDMLIDRYGLKIGNKEQELKEGIHVYPDGVLCNPSVNSLSIHLFTGTWMNGKHSFKHKLVTFLKRHINTPKEAGLYAKWIRLEHHHHHH | soluble
7 | SNAASATETNTAPSADTQAPKPVNTVTSDVDCSVSAAWGLYKFNQKSNFSAEFEMPESVKAGTGFDALIKIKDISVSNDNLSGYKNAKLTKSSIRINVGKNVKLDGNQPGLSLSNGVLSINDHLKASLEGNSLRISAAPITVRLQALTEGTLTFIPEKTILTNTASVDGYTANTTCTTNADKPFATVKVDPADGLTITAPESASIKQDVQITATVPEKLNEKMDGKVQFFVNHIAAGDPVPVTEDNKASTSIIFDTSGSKTITARFIDAEGYNPAPDGETIIPVVTELDTKKPEDTDSYTGLINGSATSLLKPAKVMPGEKVSVSASLLPNKAPIRVYEIGINAPEDVKYIDGTGKTNYSSKLATTGSVFSSPGSGYYDPEWKNESKKPNESYRGFHSDTSYSVVDTSPQTVSAEFEIPKTLAPGIYMFQMGVYKYSNSLKDLVSIPETAFEIAGPDLPALPERKIKPQPEETPEVSDGSSTAKLVKSP | soluble
